According to publication PMC10786891, “Massively parallel profiling of RNA-targeting CRISPR-Cas13d”:
Where a chain is given by its changes, count along the chain named. Names may count otherwise.

T1: EsCas13d, nuclease-dead (Eubacterium siraeum, UniProt B0MS50, R295A;H300A;R849A;H854A)
T1 sequence: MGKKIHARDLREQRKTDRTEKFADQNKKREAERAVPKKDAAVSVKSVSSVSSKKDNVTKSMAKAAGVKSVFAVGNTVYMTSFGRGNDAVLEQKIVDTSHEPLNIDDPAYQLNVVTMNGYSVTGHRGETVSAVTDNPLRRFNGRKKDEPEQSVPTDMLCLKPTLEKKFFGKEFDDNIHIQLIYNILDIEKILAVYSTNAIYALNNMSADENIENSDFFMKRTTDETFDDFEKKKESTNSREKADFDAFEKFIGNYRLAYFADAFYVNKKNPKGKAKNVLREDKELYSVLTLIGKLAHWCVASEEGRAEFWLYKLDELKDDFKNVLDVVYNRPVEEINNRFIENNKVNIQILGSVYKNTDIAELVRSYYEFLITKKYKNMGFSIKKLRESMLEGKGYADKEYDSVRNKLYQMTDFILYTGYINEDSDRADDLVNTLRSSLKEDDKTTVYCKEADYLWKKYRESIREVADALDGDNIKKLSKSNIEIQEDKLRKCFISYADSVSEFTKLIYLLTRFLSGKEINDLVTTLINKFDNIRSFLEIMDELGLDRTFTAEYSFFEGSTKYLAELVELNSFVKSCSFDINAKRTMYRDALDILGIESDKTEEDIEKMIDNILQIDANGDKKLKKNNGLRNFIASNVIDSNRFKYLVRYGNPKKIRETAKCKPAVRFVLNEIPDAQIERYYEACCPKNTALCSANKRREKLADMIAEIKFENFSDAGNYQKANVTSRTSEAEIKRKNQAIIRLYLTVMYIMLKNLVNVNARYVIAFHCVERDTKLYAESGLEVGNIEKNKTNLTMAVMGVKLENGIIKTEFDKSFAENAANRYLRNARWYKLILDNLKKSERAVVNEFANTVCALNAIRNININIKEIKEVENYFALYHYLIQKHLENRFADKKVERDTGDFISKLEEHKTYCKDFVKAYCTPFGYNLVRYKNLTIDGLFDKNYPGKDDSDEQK

B1: target 1 MT 5'PFS AGG 3'PFS UUG (mixed)
RNA 1: CACCCGUGCAAAAAUGCAGGGGUCUAAAACUGAGCGGAUAACCUCUCUAUGG
RNA 2: GGGAAUGGAUCCACAUCUACGAAUUCAGGCCAUAGAGAGGUUAUCCGCUCAUUGAGAUCGGAAGAGCACACGU
B2: target 1 MT 5'PFS CUA 3'PFS UGA (mixed)
RNA 1: B1 RNA 1
RNA 2: B1 RNA 2 with A27C, G28U, G29A, U53G, G54A
B3: target 1 insU 3' of 13,insA 3' of 13 (mixed)
RNA 1: B1 RNA 1
RNA 2: GGGAAUGGAUCCACAUCUACGAAUUCGUACCAUAGAGAGUAGUUAUCCGCUCACCGAGAUCGGAAGAGCACACGU
B4: target 1 MT 5'PFS GUA 3'PFS GGG (mixed)
RNA 1: B1 RNA 1
RNA 2: B1 RNA 2 with A27G, G28U, G29A, U52G, U53G
B5: target 1 MT 5'PFS CAA 3'PFS UCG (mixed)
RNA 1: B1 RNA 1
RNA 2: B1 RNA 2 with A27C, G28A, G29A, U53C
B6: target 1 insG 3' of 10,insA 3' of 7 (mixed)
RNA 1: B1 RNA 1
RNA 2: B3 RNA 2 with U40G, A41U, G42U, U43G, U44A, A45U, U46C, C47A
B7: target 1 MT 5'PFS GCA 3'PFS UAU (mixed)
RNA 1: B1 RNA 1
RNA 2: B1 RNA 2 with A27G, G28C, G29A, U53A, G54U
B8: target 1 MT 5'PFS GUA 3'PFS UAC (mixed)
RNA 1: B1 RNA 1
RNA 2: B1 RNA 2 with A27G, G28U, G29A, U53A, G54C
B9: target 1 MT 5'PFS GUA 3'PFS GGC (mixed)
RNA 1: B1 RNA 1
RNA 2: B1 RNA 2 with A27G, G28U, G29A, U52G, U53G, G54C
B10: target 1 G5C,A16G (mixed)
RNA 1: B1 RNA 1
RNA 2: B1 RNA 2 with A27G, G28U, G29A, A36G, G47C, U52C, U53C
B11: target 1 MT 5'PFS UUG 3'PFS AUC (mixed)
RNA 1: B1 RNA 1
RNA 2: B1 RNA 2 with A27U, G28U, U52A, G54C
B12: target 1 MT 5'PFS GCU 3'PFS UUA (mixed)
RNA 1: B1 RNA 1
RNA 2: B1 RNA 2 with A27G, G28C, G29U, G54A
B13: target 1 MT 5'PFS GCA 3'PFS UAG (mixed)
RNA 1: B1 RNA 1
RNA 2: B1 RNA 2 with A27G, G28C, G29A, U53A
B14: target 1 MT 5'PFS GUA 3'PFS GGU (mixed)
RNA 1: B1 RNA 1
RNA 2: B1 RNA 2 with A27G, G28U, G29A, U52G, U53G, G54U
B15: target 1 MT 5'PFS GUA 3'PFS UAA (mixed)
RNA 1: B1 RNA 1
RNA 2: B1 RNA 2 with A27G, G28U, G29A, U53A, G54A
B16: target 1 MT 5'PFS GAG 3'PFS AGA (mixed)
RNA 1: B1 RNA 1
RNA 2: B1 RNA 2 with A27G, G28A, U52A, U53G, G54A
B17: target 1 MT 5'PFS GAC 3'PFS UUU (mixed)
RNA 1: B1 RNA 1
RNA 2: B1 RNA 2 with A27G, G28A, G29C, G54U
B18: target 1 MT 5'PFS UUG 3'PFS AUG (mixed)
RNA 1: B1 RNA 1
RNA 2: B1 RNA 2 with A27U, G28U, U52A
B19: target 1 MT 5'PFS GCA 3'PFS UAC (mixed)
RNA 1: B1 RNA 1
RNA 2: B1 RNA 2 with A27G, G28C, G29A, U53A, G54C
B20: target 1 MT 5'PFS GCA 3'PFS UAA (mixed)
RNA 1: B1 RNA 1
RNA 2: B1 RNA 2 with A27G, G28C, G29A, U53A, G54A
B21: target 1 MT 5'PFS GUA 3'PFS UAG (mixed)
RNA 1: B1 RNA 1
RNA 2: B1 RNA 2 with A27G, G28U, G29A, U53A
B22: target 1 MT 5'PFS GAC 3'PFS UUA (mixed)
RNA 1: B1 RNA 1
RNA 2: B1 RNA 2 with A27G, G28A, G29C, G54A
B23: target 1 MT 5'PFS GGA 3'PFS UCU (mixed)
RNA 1: B1 RNA 1
RNA 2: B1 RNA 2 with A27G, G29A, U53C, G54U
B24: target 1 MT 5'PFS GUA 3'PFS UGU (mixed)
RNA 1: B1 RNA 1
RNA 2: B1 RNA 2 with A27G, G28U, G29A, U53G, G54U
B25: target 1 MT 5'PFS CUA 3'PFS AAG (mixed)
RNA 1: B1 RNA 1
RNA 2: B1 RNA 2 with A27C, G28U, G29A, U52A, U53A
B26: target 1 MT 5'PFS GGA 3'PFS UCC (mixed)
RNA 1: B1 RNA 1
RNA 2: B1 RNA 2 with A27G, G29A, U53C, G54C
B27: target 1 MT 5'PFS AUG 3'PFS CCC (mixed)
RNA 1: B1 RNA 1
RNA 2: B1 RNA 2 with G28U, U52C, U53C, G54C
B28: target 1 MT 5'PFS GCU 3'PFS UUU (mixed)
RNA 1: B1 RNA 1
RNA 2: B1 RNA 2 with A27G, G28C, G29U, G54U
B29: target 1 MT 5'PFS GCU 3'PFS UUC (mixed)
RNA 1: B1 RNA 1
RNA 2: B1 RNA 2 with A27G, G28C, G29U, G54C
B30: target 1 MT 5'PFS GAG 3'PFS AGU (mixed)
RNA 1: B1 RNA 1
RNA 2: B1 RNA 2 with A27G, G28A, U52A, U53G, G54U
B31: target 1 MT 5'PFS GAC 3'PFS UUG (mixed)
RNA 1: B1 RNA 1
RNA 2: B1 RNA 2 with A27G, G28A, G29C
B32: target 1 MT 5'PFS GGA 3'PFS UCG (mixed)
RNA 1: B1 RNA 1
RNA 2: B1 RNA 2 with A27G, G29A, U53C
B33: target 1 MT 5'PFS UUG 3'PFS AUA (mixed)
RNA 1: B1 RNA 1
RNA 2: B1 RNA 2 with A27U, G28U, U52A, G54A
B34: target 1 MT 5'PFS GUA 3'PFS UAU (mixed)
RNA 1: B1 RNA 1
RNA 2: B1 RNA 2 with A27G, G28U, G29A, U53A, G54U
B35: target 1 MT 5'PFS GGA 3'PFS UCA (mixed)
RNA 1: B1 RNA 1
RNA 2: B1 RNA 2 with A27G, G29A, U53C, G54A
B36: target 1 MT 5'PFS CUA 3'PFS CGU (mixed)
RNA 1: B1 RNA 1
RNA 2: B1 RNA 2 with A27C, G28U, G29A, U52C, U53G, G54U
B37: target 1 MT 5'PFS GUA 3'PFS GGA (mixed)
RNA 1: B1 RNA 1
RNA 2: B1 RNA 2 with A27G, G28U, G29A, U52G, U53G, G54A
B38: target 1 MT 5'PFS GCU 3'PFS UUG (mixed)
RNA 1: B1 RNA 1
RNA 2: B1 RNA 2 with A27G, G28C, G29U
B39: target 1 MT 5'PFS GAC 3'PFS UUC (mixed)
RNA 1: B1 RNA 1
RNA 2: B1 RNA 2 with A27G, G28A, G29C, G54C

What follows are binders tested against T1, EsCas13d, nuclease-dead (assay: crRNA (strand 1, pre-loaded); Mg2+; 40 mM Tris-HCl pH 7.5, 150 mM NaCl, 6 mM MgCl2, 1 mM DTT, 0.1% Tween-20, 0.2 mg/ml BSA; 25 C; 10 min per concentration, then washed). Conditions: tags: His6-TwinStrep-SUMO cleaved; N-terminal SNAP kept (SNAP-Surface 488); label: 3' end held by stalled T7 RNA polymerase.

Compared with B1, B2 is 1.8-fold lower in Kd: 40.5 ± 9.5 nM for the first, 22 ± 7.5 nM for the second. The second binds more tightly here.

Going from B3 to B4, the Kd rises from 4.35 ± 0.17 nM to 30.6 ± 3.7 nM (7-fold). The first binds more tightly here.

B5 and B6 are within error of each other in Kd: 12.2 ± 3.6 nM for the first, 15.3 ± 0.6 nM for the second.

B7 and B8 are within error of each other in Kd: 10.8 ± 1.45 nM for the first, 13.2 ± 1.25 nM for the second.

Going from B9 to B10, the Kd rises from 7.25 ± 0.95 nM to 65 ± 11 nM (9-fold). The first binds more tightly here.

B11 and B12 are within error of each other in Kd: 37.5 ± 13 nM for the first, 22 ± 5 nM for the second.

B13 and B14 are within error of each other in Kd: 19.4 ± 4.95 nM for the first, 20.7 ± 2 nM for the second.

Going from B15 to B16, the Kd rises from 13.8 ± 1.35 nM to 37 ± 13 nM (2.7-fold).

First: B17
Second: B18
The Kd of the first is 7.5-fold lower: 11 ± 4.5 nM for the first, 83 ± 35 nM for the second. The first binds more tightly here.

B19 and B20 are within error of each other in Kd: 14 ± 2.55 nM for the first, 19 ± 6.5 nM for the second.

B21 and B22 are within error of each other in Kd: 13.7 ± 0.9 nM for the first, 13.2 ± 4.3 nM for the second.

B23 and B24 are within 1.5-fold of each other in Kd: 13.5 ± 2.5 nM for the first, 19.1 ± 0.95 nM for the second.

First: B25
Second: B26
The Kd of the first is 2-fold lower: 11.4 ± 4 nM for the first, 23 ± 7 nM for the second. The first binds more tightly here.

Compared with B27, B28 is 1.7-fold lower in Kd: ~40.5 nM for the first, 24.1 ± 3.8 nM for the second. The second binds more tightly here.

B29 and B30 are within error of each other in Kd: 36.5 ± 9 nM for the first, 47.5 ± 16.5 nM for the second.

B31 and B32 are within error of each other in Kd: 14.5 ± 4 nM for the first, 10.8 ± 1.2 nM for the second.

First: B33
Second: B34
The Kd of the first is 6-fold higher: 58.5 ± 20 nM for the first, 9.75 ± 0.7 nM for the second. The second binds more tightly here.

B35 and B36 are within error of each other in Kd: 17.9 ± 5.7 nM for the first, 17 ± 6 nM for the second.

Going from B37 to B38, the Kd rises from 15.8 ± 2.45 nM to 61 ± 23.5 nM (3.9-fold). The first binds more tightly here.

For B39, the Kd was 14.1 ± 4.25 nM.
